Reference: the supplement of paper PMC10266784

B1: library; numbered along this chain (parent)
chain: MAAAAAAAAEQQSSNGPVKKSMREKAVERRSVNKEHNSNFKAGYIPIDEDRLHKTGLRGRKGNLAICVIILLFILAVINLIITLVIWAVIRIGPNGCDSMEFHESGLLRFKQVSDMGVIHPLYKSTVGGRRNENLVITGNNQPIVFQQGTTKLSVENNKTSITSDIGMQFFDPRTQNILFSTDYETHEFHLPSGVKSLNVQKASTERITSNATSDLNIKVDGRAIVRGNEGVFIMGKTIEFHMGGNMELKAENSIILNGSVMVSTTRLPSSSSGDQLGSGDWVRYKLCMCADGTLFKVQVTSQNMGCQISDNPCGNTH

Variants of: B1
Experiment: SGCB cell-surface expression functional score (HA stain, bin4 vs bin1, normalised to synonymous) (log10 ratio); higher = more cell-surface SGCB (functional)
Method in brief: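 Human beta-sarcoglycan, tagged with HA and fused to YFP, was built into codon-saturation libraries and delivered by lentivirus at MOI <0.1 into HEK293 cells that stably express alpha-, gamma- and delta-sarcoglycan. After 72 hours, YFP-positive cells were sorted and grown for 5–7 days, then stained on ice with Alexa Fluor 647 anti-HA, fixed, sorted into four 5% intensity bins and amplicon-sequenced. Each variant's functional score is the log ratio of its frequency in the highest bin to that in the lowest bin, taken as the median across codons and transductions. Transductions were done in duplicate, and synonymous variants were scaled per section to mean 0, SD 0.5.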

Variant	SGCB cell-surface expression functional score (log10)
S279N	0.15
G149Q	-0.01
T205C	-0.21
P17T	0.31
I74H	0.05
F189N	-2.42
G56M	-0.31
G293Q	0.3
S271N	0.21
N95E	0.05
M100C	-1.81
S270Q	0.47
N312V	0.13
P269N	0.54
S272M	-1.59
L84D	-0.05
Y285E	-2.12
S193W	-1.15
G274Y	0.47
R207A	-1.05
S302W	-0.56
E24P	0
G139H	-1.79
K34C	0.33

Variant	SGCB cell-surface expression functional score (log10)
I69W	0.3
I45F	-0.02
L75G	-0.34
T238W	-0.07
N134Y	-0.82
E133T	0.08
E230S	0.75
S14K	0.31
S214H	-0.9
E240L	0.37
E101Y	-0.43
I45R	-0.17
C67E	0.39
F180V	-2.01
L257A	-0.23
G194N	0.05
G306Q	-0.33
V200S	-1.59
V113S	-0.27
L122W	0.1
G128V	-0.76
G149W	-0.54
V232K	-1.43
I178Y	-1.19

Variant	SGCB cell-surface expression functional score (log10)
R91P	-1.76
Q299R	0
Q201W	-0.32
V220G	0.34
I234C	0.01
I239Y	-1.52
M243L	0.43
L216R	-1.93
N63W	0.22
I234N	-1.67
N177L	0.29
L179P	-0.55
Q11T	-0.02
I119R	-0.88
G274E	-0.62
S260A	0.52
D115E	-0.54
T175W	1.12
K25W	-0.25
G93H	0.32
D281N	0.25
F73C	0.34
E104Q	0.18
E104H	0.28

Variant	SGCB cell-surface expression functional score (log10)
T160H	-0.01
Q201D	-0.56
G222F	0.36
A203V	-0.13
R30M	-0.06
I82P	0.22
N37S	-0.21
I74S	-0.05
G56K	0.41
K25A	-0.05
S14T	-0.01
E248Q	-0.13
S99C	-0.72
G139M	-1.05
E49M	0.12
K237S	0.2
L153R	-1.23
W87R	-0.12
M247Y	1.22
S181F	-1.53
A6T	0.07
G59H	0.1
H190D	-0.59
G278A	0.15

Variant	SGCB cell-surface expression functional score (log10)
I74A	0
V298K	0.19
L84S	0.09
T205R	-1.93
I70E	-0.22
A88V	0.25
R58M	-0.15
I70T	-0.22
V113H	-0.84
N33Y	0.04
D215F	-1.47
V200Y	-1.16
G259I	0.63
F146K	-0.93
V220P	0.3
T175L	0.08
S154N	-0.3
G306W	-1.81
C314Y	-0.32
A65S	0.01
S105K	-0.5
S302Q	-1.84
S279V	0.21
R223F	-0.62

Variant	SGCB cell-surface expression functional score (log10)
V232S	-0.67
L107R	-0.36
R58G	0
N158T	0.18
N246I	0.32
F146L	0.18
N140Y	-0.05
E230A	0.38
T55W	-0.27
I218N	-1.03
A203E	-0.01
L64Q	0.03
V300F	-0.2
G93L	-1.84
A65I	0.15
S197D	-0.76
G56D	-0.5
A291H	-0.89
Q147G	-0.41
C97E	-1.87
H242E	0.36
K25C	0.39
S214Y	-1.74
A26T	0.24

Variant	SGCB cell-surface expression functional score (log10)
V300D	-0.2
V298T	-0.74
A7Y	0.05
G43A	0.25
I218R	-1.49
A7D	0.19
S254T	0.67
T266K	1.15
L108M	0.07
R109Q	-0.31
S264G	0.23
S302F	0.61
D183Q	-0.56
S214K	-0.46
L198P	-1.18
G278F	0.12
R51H	0
A4I	0.3
D50F	0.27
G222I	-0.41
I162V	-0.49
E156R	-0.38
I225H	0.53
